Experimental data as given in the Human Domainome abundance scans (Beltran et al. 2025).
± gives the uncertainty stated by the source.

B1: Cell division cycle and apoptosis regulator protein 1, residues 625 to 674; numbered along this chain, Q8IX12 (parent)
chain: ISTPTHWSKLDPKTMKVNDLRKELESRALSSKGLKSQLIARLTKQLKVEE

Variants of: B1
Assay: abundance fitness (aPCA) (normalised: wild type 0, dead -1); higher = more abundant; growth selection in yeast, the domain comes from the species named
Settings: Homo sapiens

| Variant | abundance fitness |
| --- | --- |
| ISTPTHWSKLDPKTMKVNDLRRELESRALSSKGLKSQLIARLTKQLKVEE [K22R] | -0.023 ± 0.03 |
| ISTPTHWSKLDPKTMKVNDLRSELESRALSSKGLKSQLIARLTKQLKVEE [K22S] | -0.004 ± 0.043 |
| ISTPTHWSKLDPKTMKVNDLRWELESRALSSKGLKSQLIARLTKQLKVEE [K22W] | -0.209 ± 0.036 |
| ISTPTHWSKLDPKTMKVNDLRKEKESRALSSKGLKSQLIARLTKQLKVEE [L24K] | -0.879 ± 0.056 |
| ISTPTHWSKLDPKTMKVNDLRKEPESRALSSKGLKSQLIARLTKQLKVEE [L24P] | -0.778 ± 0.067 |
| ISTPTHWSKLDPKTMKVNDLRKEDESRALSSKGLKSQLIARLTKQLKVEE [L24D] | -0.881 ± 0.13 |
| ISTPTHWSKLDPKTMKVNDLRKETESRALSSKGLKSQLIARLTKQLKVEE [L24T] | -0.77 ± 0.036 |
| ISTPTHWSKLDPKTMKVNDLRKEWESRALSSKGLKSQLIARLTKQLKVEE [L24W] | -1.11 ± 0.15 |
| ISTPTHWSKLDPKTMKVNDLRKEGESRALSSKGLKSQLIARLTKQLKVEE [L24G] | -0.905 ± 0.064 |
| ISTPTHWSKLDPKTMKVNDLRKESESRALSSKGLKSQLIARLTKQLKVEE [L24S] | -0.806 ± 0.051 |
| ISTPTHWSKLDPKTMKVNDLRKEMESRALSSKGLKSQLIARLTKQLKVEE [L24M] | -0.678 ± 0.062 |
| ISTPTHWSKLDPKTMKVNDLRKECESRALSSKGLKSQLIARLTKQLKVEE [L24C] | -0.393 ± 0.054 |
| ISTPTHWSKLDPKTMKVNDLRKEFESRALSSKGLKSQLIARLTKQLKVEE [L24F] | -0.825 ± 0.068 |
| ISTPTHWSKLDPKTMKVNDLRKEHESRALSSKGLKSQLIARLTKQLKVEE [L24H] | -0.742 ± 0.15 |
| ISTPTHWSKLDPKTMKVNDLRKERESRALSSKGLKSQLIARLTKQLKVEE [L24R] | -0.87 ± 0.052 |
| ISTPTHWSKLDPKTMKVNDLRKEIESRALSSKGLKSQLIARLTKQLKVEE [L24I] | -0.586 ± 0.083 |
| ISTPTHWSKLDPKTMKVNDLRKEEESRALSSKGLKSQLIARLTKQLKVEE [L24E] | -0.665 ± 0.053 |
| ISTPTHWSKLDPKTMKVNDLRKEAESRALSSKGLKSQLIARLTKQLKVEE [L24A] | -0.829 ± 0.036 |
| ISTPTHWSKLDPKTMKVNDLRKENESRALSSKGLKSQLIARLTKQLKVEE [L24N] | -0.991 ± 0.13 |
| ISTPTHWSKLDPKTMKVNDLRKEYESRALSSKGLKSQLIARLTKQLKVEE [L24Y] | -1.01 ± 0.19 |
| ISTPTHWSKLDPKTMKVNDLRKEQESRALSSKGLKSQLIARLTKQLKVEE [L24Q] | -0.891 ± 0.071 |
| ISTPTHWSKLDPKTMKVNDLRKEVESRALSSKGLKSQLIARLTKQLKVEE [L24V] | -0.685 ± 0.038 |
| ISTPTHWSKLDPKTMKVNDLRKSLESRALSSKGLKSQLIARLTKQLKVEE [E23S] | -0.617 ± 0.048 |
| ISTPTHWSKLDPKTMKVNDLRKRLESRALSSKGLKSQLIARLTKQLKVEE [E23R] | -1.07 ± 0.062 |
| ISTPTHWSKLDPKTMKVNDLRKCLESRALSSKGLKSQLIARLTKQLKVEE [E23C] | -0.677 ± 0.065 |
| ISTPTHWSKLDPKTMKVNDLRKKLESRALSSKGLKSQLIARLTKQLKVEE [E23K] | -1 ± 0.061 |

| Variant | abundance fitness |
| --- | --- |
| ISTPTHWSKLDPKTMKVNDLRKFLESRALSSKGLKSQLIARLTKQLKVEE [E23F] | -0.737 ± 0.076 |
| ISTPTHWSKLDPKTMKVNDLRKHLESRALSSKGLKSQLIARLTKQLKVEE [E23H] | -0.48 ± 0.067 |
| ISTPTHWSKLDPKTMKVNDLRKVLESRALSSKGLKSQLIARLTKQLKVEE [E23V] | -0.924 ± 0.081 |
| ISTPTHWSKLDPKTMKVNDLRKWLESRALSSKGLKSQLIARLTKQLKVEE [E23W] | -0.661 ± 0.054 |
| ISTPTHWSKLDPKTMKVNDLRKGLESRALSSKGLKSQLIARLTKQLKVEE [E23G] | -0.904 ± 0.061 |
| ISTPTHWSKLDPKTMKVNDLRKLLESRALSSKGLKSQLIARLTKQLKVEE [E23L] | -0.913 ± 0.07 |
| ISTPTHWSKLDPKTMKVNDLRKTLESRALSSKGLKSQLIARLTKQLKVEE [E23T] | -0.672 ± 0.05 |
| ISTPTHWSKLDPKTMKVNDLRKPLESRALSSKGLKSQLIARLTKQLKVEE [E23P] | -0.805 ± 0.1 |
| ISTPTHWSKLDPKTMKVNDLRKNLESRALSSKGLKSQLIARLTKQLKVEE [E23N] | -0.563 ± 0.16 |
| ISTPTHWSKLDPKTMKVNDLRKQLESRALSSKGLKSQLIARLTKQLKVEE [E23Q] | -0.228 ± 0.06 |
| ISTPTHWSKLDPKTMKVNDLRKMLESRALSSKGLKSQLIARLTKQLKVEE [E23M] | -0.965 ± 0.13 |
| ISTPTHWSKLDPKTMKVNDLRKDLESRALSSKGLKSQLIARLTKQLKVEE [E23D] | -0.916 ± 0.18 |
| ISTPTHWSKLDPKTMKVNDLRKELPSRALSSKGLKSQLIARLTKQLKVEE [E25P] | -1.02 ± 0.12 |
| ISTPTHWSKLDPKTMKVNDLRKELVSRALSSKGLKSQLIARLTKQLKVEE [E25V] | -0.155 ± 0.044 |
| ISTPTHWSKLDPKTMKVNDLRKELFSRALSSKGLKSQLIARLTKQLKVEE [E25F] | -0.568 ± 0.038 |
| ISTPTHWSKLDPKTMKVNDLRKELTSRALSSKGLKSQLIARLTKQLKVEE [E25T] | -0.18 ± 0.047 |
| ISTPTHWSKLDPKTMKVNDLRKELISRALSSKGLKSQLIARLTKQLKVEE [E25I] | -0.274 ± 0.066 |
| ISTPTHWSKLDPKTMKVNDLRKELASRALSSKGLKSQLIARLTKQLKVEE [E25A] | -0.443 ± 0.056 |
| ISTPTHWSKLDPKTMKVNDLRKELRSRALSSKGLKSQLIARLTKQLKVEE [E25R] | -0.154 ± 0.043 |
| ISTPTHWSKLDPKTMKVNDLRKELQSRALSSKGLKSQLIARLTKQLKVEE [E25Q] | -0.097 ± 0.035 |
| ISTPTHWSKLDPKTMKVNDLRKELDSRALSSKGLKSQLIARLTKQLKVEE [E25D] | -0.581 ± 0.081 |
| ISTPTHWSKLDPKTMKVNDLRKELMSRALSSKGLKSQLIARLTKQLKVEE [E25M] | -0.076 ± 0.044 |
| ISTPTHWSKLDPKTMKVNDLRKELYSRALSSKGLKSQLIARLTKQLKVEE [E25Y] | -0.799 ± 0.15 |
| ISTPTHWSKLDPKTMKVNDLRKELWSRALSSKGLKSQLIARLTKQLKVEE [E25W] | -0.304 ± 0.049 |
| ISTPTHWSKLDPKTMKVNDLRKELSSRALSSKGLKSQLIARLTKQLKVEE [E25S] | -0.539 ± 0.058 |
| ISTPTHWSKLDPKTMKVNDLRKELKSRALSSKGLKSQLIARLTKQLKVEE [E25K] | 0.002 ± 0.043 |
